{"source": "paper PMC13128273", "about": "“The interferon-stimulated gene product HERC5 inhibits human LINE-1 retrotransposition with an ISGylation-independent mechanism” (Nucleic Acids Research, 2026)", "molecular_target": "L1.3 ORF2p-3×FLAG (human, UniProt O00370 1-1275)", "sequence (O00370 whole entry)": "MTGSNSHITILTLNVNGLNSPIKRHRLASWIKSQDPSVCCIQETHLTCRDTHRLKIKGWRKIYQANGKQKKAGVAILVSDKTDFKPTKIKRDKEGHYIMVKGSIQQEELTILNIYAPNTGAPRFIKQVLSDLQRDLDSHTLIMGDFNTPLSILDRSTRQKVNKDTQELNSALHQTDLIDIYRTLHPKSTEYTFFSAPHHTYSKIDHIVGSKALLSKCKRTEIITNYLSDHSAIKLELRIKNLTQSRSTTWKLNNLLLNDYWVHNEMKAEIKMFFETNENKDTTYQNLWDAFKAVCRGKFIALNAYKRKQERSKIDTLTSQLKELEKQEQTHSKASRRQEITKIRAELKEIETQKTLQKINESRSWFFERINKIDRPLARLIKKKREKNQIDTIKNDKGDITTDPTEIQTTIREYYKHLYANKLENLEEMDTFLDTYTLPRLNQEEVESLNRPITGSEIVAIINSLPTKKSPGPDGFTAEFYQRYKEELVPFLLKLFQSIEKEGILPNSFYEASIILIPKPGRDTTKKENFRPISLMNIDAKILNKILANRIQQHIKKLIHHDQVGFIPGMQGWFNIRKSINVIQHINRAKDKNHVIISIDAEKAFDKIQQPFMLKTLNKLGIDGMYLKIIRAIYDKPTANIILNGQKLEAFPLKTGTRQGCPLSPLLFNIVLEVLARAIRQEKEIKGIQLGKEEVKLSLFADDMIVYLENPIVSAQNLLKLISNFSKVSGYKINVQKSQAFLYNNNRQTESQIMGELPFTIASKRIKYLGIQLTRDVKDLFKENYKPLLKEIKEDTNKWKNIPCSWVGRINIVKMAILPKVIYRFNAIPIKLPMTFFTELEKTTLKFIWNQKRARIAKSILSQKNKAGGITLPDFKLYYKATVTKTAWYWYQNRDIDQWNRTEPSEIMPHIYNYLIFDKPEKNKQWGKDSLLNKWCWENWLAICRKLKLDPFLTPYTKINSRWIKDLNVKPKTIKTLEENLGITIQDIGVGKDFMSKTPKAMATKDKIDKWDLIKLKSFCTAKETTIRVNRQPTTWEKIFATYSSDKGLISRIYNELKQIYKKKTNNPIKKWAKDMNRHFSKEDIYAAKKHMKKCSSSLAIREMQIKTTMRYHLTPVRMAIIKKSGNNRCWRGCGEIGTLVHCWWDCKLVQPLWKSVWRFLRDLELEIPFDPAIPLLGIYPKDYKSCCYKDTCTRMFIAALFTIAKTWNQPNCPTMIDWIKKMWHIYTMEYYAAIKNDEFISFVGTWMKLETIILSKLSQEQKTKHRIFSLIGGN", "experiment": "co-IP; ORF2p-3×FLAG precipitated with anti-FLAG from lysate of HEK293T cells transfected with pTMF3 together with pCMV-3Tag-9, HERC5 or MOV10 vector; ORF1p-T7 detected by anti-T7 blot, band intensities given as ORF1p/ORF2p ratio relative to the control; pTMH3 as negative control", "settings": "partners not purified"}
{"binder": "L1.3 ORF1p-T7 (natural protein, ORF1p of the human LINE-1 element L1.3, expressed from the full-length L1.3 in pTMF3 or pTMH3; residues counted from the first methionine of L1.3 ORF1p; From pTMH3 in the HERC5-3×FLAG IP and from pTMF3 in the ORF2p-3×FLAG IP; source: HEK293T, transfected, in lysate) MGKKQNRKTGNSKTQSASPPPKERSSSPATEQSWMENDFDELREEGFRRSNYSELREDIQTKGKEVENFEKNLEECITRITNTEKCLKELMELKTKARELREECRSLRSRCDQLEERVSAMEDEMNEMKREGKFREKRIKRNEQSLQEIWDYVKRPNLRLIGVPESDVENGTKLENTLQDIIQENFPNLARQANVQIQEIQRTPQRYSSRRATPRHIIVRFTKVEMKEKMLRAAREKGRVTLKGKPIRLTADLSAETLQARREWGPIFNILKEKNFQPRISYPAKLSFISEGEIKYFIDKQMLRDFVTTRPALKELLKEALNMERNNRYQPLQNHAKM", "values": [{"measurement": "decrease of the ORF1p/ORF2p ratio in the ORF2p-3×FLAG IP with HERC5 overexpression, against the empty vector", "value": "~60", "unit": "%"}]}
